Experimental data reported in patent US20230174596A1 (published 2023).
Substitutions are numbered along the chain they refer to. Names may count otherwise.

T1: hVEGF-A (8-109) (human, UniProt P15692 214-315)
T1 construct: residue numbers count on mature VEGF-A; dimer
T1 sequence (looked up): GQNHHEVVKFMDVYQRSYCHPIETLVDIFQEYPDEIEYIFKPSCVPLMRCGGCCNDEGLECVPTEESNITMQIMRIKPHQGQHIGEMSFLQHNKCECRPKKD

T2: human VEGF-A (human), P15692
T2 chain: T1 sequence (looked up)

T3: hVEGF-A Q89A (human, UniProt P15692 34-135)
T3 chain: T1 sequence (looked up) with Q82A

T4: hVEGF-A Y21A (human, UniProt P15692 34-135)
T4 chain: T1 sequence (looked up) with Y14A

T5: hVEGF-A K48A (human, UniProt P15692 34-135)
T5 chain: T1 sequence (looked up) with K41A

T6: mVEGF (mouse, UniProt Q00731-2 27-190, limits assumed)
T6 sequence (looked up): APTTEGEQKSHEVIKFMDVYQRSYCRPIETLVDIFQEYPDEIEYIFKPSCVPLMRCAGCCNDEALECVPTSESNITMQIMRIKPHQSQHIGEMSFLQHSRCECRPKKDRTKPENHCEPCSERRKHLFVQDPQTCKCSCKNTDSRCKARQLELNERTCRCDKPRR

T7: human VEGF-A (human, UniProt P15692-4 34-135, limits assumed)
T7 sequence (looked up): T1 sequence (looked up)

T8: rat VEGF-A (rat, UniProt P16612-2 27-190, limits assumed)
T8 sequence (looked up): T6 sequence (looked up) with S10A, I14V, I75V


These binders were tested against T1, hVEGF-A (8-109) (assay: spot phage ELISA). Details: not given.
GCPTTRFKQYCKQDSDCLAGCVCGPNGFCG (designed binder) [VEGF_CKP6] showed an ELISA of 3.5 and a S/N of 51.9.
For GCTTPWPPHEIMCKQDSDCLAGCVCGPNGFCG (designed binder) [VEGF_CKP12], the ELISA was 3.5 and the S/N was 55.2.
GCQDPTFNWALYCKQDSDCLAGCVCQMYQSCG (designed binder) [VEGF_CKP7] gave an ELISA of 3.4 and a S/N of 54.5.
GCQLMQPFWGCKQDSDCLAGCVCHWYQSCG (designed binder) [VEGF_CKP9] was tested, and the ELISA was 0.4 and the S/N was 7.4.
GCRDLDVKWDCKQDSDCLAGCFCQYYSSCG (designed binder) [VEGF_CKP10] gave an ELISA of 3.2 and a S/N of 43.7.

Same assay, conditions: record 2
GCQDPTFNWALYCKQDSDCLAGCVCQMYQSCG (designed binder) [VEGF_CKP7] was tested, and the ELISA was 0.1 and the S/N was 1.3.
In the case of GCQLMQPFWGCKQDSDCLAGCVCHWYQSCG (designed binder) [VEGF_CKP9], the ELISA is reported as 0.9 and the S/N is reported as 11.6.

Same assay, conditions: record 3
Binder GCQLMQPFWGCKQDSDCLAGCVCHWYQSCG (designed binder) [VEGF_CKP9] has an ELISA of 3.3 and a S/N of 36.

Molecular target: T2, human VEGF-A (human), P15692
Test: SPR
Details: not given
For GCNIMLPFWGCGRDFECLAGCVCQYYQSCG (designed binder, modifications not checked) [VEGF_CKP9.54.90-Alkyn], the Kd was 0.00049 µM.

Molecular target: T3, hVEGF-A Q89A
Test: SPR
Details: not given
Work on GCDVMQPYWGCKQDSDCLAGCVCHWYNSCG (designed binder, also called EM63) [VEGF_CKP9.63] yielded a Kd of 2 µM.
GCDVMQPYWGCGPDIDCLAGCVCHWYNSCG (designed binder, also called L2.9.63.12) [VEGF_CKP9.63.12] gave a Kd of 0.0365 µM.
GCNIMLPFWGCGRDFECLAGCVCQYYQSCG (designed binder) [VEGF_CKP9.54.90] gave a Kd of 0.0088 µM.
GCNIMLPFWGCKQDSDCLAGCVCQYYQSCG (designed binder, also called EM54) [VEGF_CKP9.54] was tested, and the Kd was 1.88 µM.

Molecular target: T4, hVEGF-A Y21A
Test: SPR
Details: not given
GCDVMQPYWGCKQDSDCLAGCVCHWYNSCG (designed binder, also called EM63) [VEGF_CKP9.63] showed a Kd of 0.585 µM.
With GCDVMQPYWGCGPDIDCLAGCVCHWYNSCG (designed binder, also called L2.9.63.12) [VEGF_CKP9.63.12] the Kd was 0.00984 µM.
Work on GCNIMLPFWGCGRDFECLAGCVCQYYQSCG (designed binder) [VEGF_CKP9.54.90] yielded a Kd of 0.0035 µM.
Work on GCNIMLPFWGCKQDSDCLAGCVCQYYQSCG (designed binder, also called EM54) [VEGF_CKP9.54] yielded a Kd of 0.317 µM.

Molecular target: T5, hVEGF-A K48A
Test: SPR
Details: not given
For GCDVMQPYWGCKQDSDCLAGCVCHWYNSCG (designed binder, also called EM63) [VEGF_CKP9.63], the Kd was 0.0284 µM.
Binder GCDVMQPYWGCGPDIDCLAGCVCHWYNSCG (designed binder, also called L2.9.63.12) [VEGF_CKP9.63.12] has a Kd of 0.00033 µM.
GCNIMLPFWGCGRDFECLAGCVCQYYQSCG (designed binder) [VEGF_CKP9.54.90] showed a Kd of 0.00019 µM.
GCNIMLPFWGCKQDSDCLAGCVCQYYQSCG (designed binder, also called EM54) [VEGF_CKP9.54] showed a Kd of 0.022 µM.

These binders were tested against LRP6 E1E2 protein (human) (UniProt O75581) (assay: spot phage ELISA). Details: not given.
LRP6 E1E2 protein (human), sequence (O75581 20-630 limits assumed): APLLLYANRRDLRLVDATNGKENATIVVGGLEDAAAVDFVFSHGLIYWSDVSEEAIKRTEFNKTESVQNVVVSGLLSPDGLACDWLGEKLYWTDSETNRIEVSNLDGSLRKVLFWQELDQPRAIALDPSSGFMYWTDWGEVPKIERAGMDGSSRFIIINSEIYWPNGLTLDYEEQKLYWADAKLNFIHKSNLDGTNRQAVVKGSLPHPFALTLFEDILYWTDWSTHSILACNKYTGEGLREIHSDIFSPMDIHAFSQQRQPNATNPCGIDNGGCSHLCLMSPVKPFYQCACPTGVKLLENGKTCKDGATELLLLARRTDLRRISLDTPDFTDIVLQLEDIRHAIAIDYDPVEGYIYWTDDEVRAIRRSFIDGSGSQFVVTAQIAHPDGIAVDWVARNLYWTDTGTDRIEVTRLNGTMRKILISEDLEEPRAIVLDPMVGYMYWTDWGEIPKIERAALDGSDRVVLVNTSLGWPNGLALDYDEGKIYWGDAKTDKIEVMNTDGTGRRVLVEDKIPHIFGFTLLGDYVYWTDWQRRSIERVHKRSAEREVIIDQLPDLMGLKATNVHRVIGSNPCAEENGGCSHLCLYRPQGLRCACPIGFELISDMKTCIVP
GCENRTKGCKQDSDCLAGCVCGFRGTCG (designed binder) [LRP6_CKP20] showed an ELISA of 3.1 and a S/N of 38.7.
GCANRVKRTSCKQDSDCLAGCVCGPNGFCG (designed binder) [LRP6_CKP22] gave an ELISA of 3.43 and a S/N of 42.9.
GCGNKIRACKQDSDCLAGCVCRDRVGCG (designed binder) [LRP6_CKP21] gave an ELISA of 2.8 and a S/N of 33.7.

What follows are binders tested against T1, hVEGF-A (8-109) (assay: SPR). Details: not given.
GCDVMQPYWGCGENFLCLAGCVCHWYNSCG (designed binder, also called L2.9.63.1) [VEGF_CKP9.63.1] gave a Kd of 0.0058 µM.
For GCDVMQPYWGCGESLSCLAGCVCHWYNSCG (designed binder, also called L2.9.63.69) [VEGF_CKP9.63.69], the Kd was 0.0069 µM.
For GCDVMQPYWGCGRDMDCLAGCVCHWYNSCG (designed binder, also called L2.9.63.27) [VEGF_CKP9.63.27], the Kd was 0.0014 µM.
For GCDVMQPYWGCEMDFDCLAGCVCHWYNSCG (designed binder, also called L2.9.63.44) [VEGF_CKP9.63.44], the Kd was 0.0012 µM.

These binders were tested against T6, mVEGF (assay: cell-based or functional assay). Details: not given.
GCPTTRFKQYCKQDSDCLAGCVCGPNGFCG (designed binder) [VEGF_CKP6] was tested, and the “Cellular Assay IC50, mVEGF (50 ng/ml)” value was 169 µM.
With GCTTPWPPHEIMCKQDSDCLAGCVCGPNGFCG (designed binder) [VEGF_CKP12] the “Cellular Assay IC50, mVEGF (50 ng/ml)” value was 243 µM.
For GCQDPTFNWALYCKQDSDCLAGCVCQMYQSCG (designed binder) [VEGF_CKP7], the “Cellular Assay IC50, mVEGF (50 ng/ml)” value was 39 µM.
In the case of GCQLMQPFWGCKQDSDCLAGCVCHWYQSCG (designed binder) [VEGF_CKP9], the “Cellular Assay IC50, mVEGF (50 ng/ml)” value is reported as 10 µM.

The binders below were run against T7, human VEGF-A (assay: cell-based or functional assay). Details: not given.
GCPTTRFKQYCKQDSDCLAGCVCGPNGFCG (designed binder) [VEGF_CKP6] was tested, and the “Cellular Assay IC50, hVEGF-A (25 ng/ml)” value was 47 µM.
In the case of GCNIMLPYWGCGRDFECFYECICQYYQSCG (designed binder) [VEGF_CKP9.54.90.62.F8Y], the Cellular IC50 is reported as 0.00114 µM and the fold improvement relative to variant 9.54.90 (cellular IC50) is reported as 1.18 fold.
For GCTTPWPPHEIMCKQDSDCLAGCVCGPNGFCG (designed binder) [VEGF_CKP12], the “Cellular Assay IC50, hVEGF-A (25 ng/ml)” value was 102 µM.
GCQDPTFNWALYCKQDSDCLAGCVCQMYQSCG (designed binder) [VEGF_CKP7] was tested, and the “Cellular Assay IC50, hVEGF-A (25 ng/ml)” value was 18 µM.
With GCNIMLPFWGCGRDFECFYECICQYYQSCG (designed binder) [VEGF_CKP9.54.90.62] the Cellular IC50 was 0.00092 µM and the fold improvement relative to variant 9.54.90 (cellular IC50) was 1.47 fold.
Work on GCNIMLPFWGCGRDFECMSDCICQYYQSCG (designed binder) [VEGF_CKP9.54.90.12] yielded a Cellular IC50 of 0.0012 µM and a fold improvement relative to variant 9.54.90 (cellular IC50) of 1.12 fold.
For GCQLMQPFWGCKQDSDCLAGCVCHWYQSCG (designed binder) [VEGF_CKP9], the “Cellular Assay IC50, hVEGF-A (25 ng/ml)” value was 12 µM.
GCNIMLPFWGCGRDFECFINCICQYYQSCG (designed binder) [VEGF_CKP9.54.90.44] showed a Cellular IC50 of 0.00116 µM and a fold improvement relative to variant 9.54.90 (cellular IC50) of 1.16 fold.
Binder GCNIMLPFWGCGRDFECMQTCICQYYQSCG (designed binder) [VEGF_CKP9.54.90.25] has a Cellular IC50 of 0.00126 µM and a fold improvement relative to variant 9.54.90 (cellular IC50) of 1.07 fold.
GCRDLDVKWDCKQDSDCLAGCFCQYYSSCG (designed binder) [VEGF_CKP10] was tested, and the “Cellular Assay IC50, hVEGF-A (25 ng/ml)” value was 45 µM.
In the case of GCNIMLPFWGCGRDFECMEQCICQYYQSCG (designed binder) [VEGF_CKP9.54.90.67], the Cellular IC50 is reported as 0.0011 µM and the fold improvement relative to variant 9.54.90 (cellular IC50) is reported as 1.23 fold.
In the case of GCDVMQPYWGCGPDIDCLSNCICHWYNSCG (designed binder) [VEGF_CKP9.63.12.12], the Cellular IC50 is reported as 0.00056 µM and the fold improvement relative to variant 9.54.90 (cellular IC50) is reported as 2.41 fold.
Work on GCNIMLPYWGCGRDFECMNQCICQYYQSCG (designed binder) [VEGF_CKP9.54.90.13.F8Y] yielded a Cellular IC50 of 0.00202 µM and a fold improvement relative to variant 9.54.90 (cellular IC50) of 0.67 fold.
CNIMLPYWGCGRDFECLAGCVCQYYQSC (designed binder) [VEGF_CKP9.54.90 F7Y Δ2G] was tested, and the Cellular IC50 was 0.00301 µM and the fold improvement relative to variant 9.54.90 (cellular IC50) was 0.44 fold.
For GCNIMLPFWGCGRDFECMNQCICQYYQSCG (designed binder) [VEGF_CKP9.54.90.13], the Cellular IC50 was 0.00096 µM and the fold improvement relative to variant 9.54.90 (cellular IC50) was 1.41 fold.

Same assay, conditions: record 2
In the case of GCNIMLPFWGCGRDFECMEQCICQYYQSCG (designed binder) [VEGF_CKP9.54.90.67], the Cellular IC50 is reported as 0.001 µM.
With GCDVMQPYWGCGPDIDCLSNCICHWYNSCG (designed binder) [VEGF_CKP9.63.12.12] the Cellular IC50 was 0.0005 µM.

What follows are binders tested against T8, rat VEGF-A (assay: cell-based or functional assay). Details: not given.
In the case of GCPTTRFKQYCKQDSDCLAGCVCGPNGFCG (designed binder) [VEGF_CKP6], the “Cellular Assay IC50, rVEGF (50 ng/ml)” value is reported as 711 µM.
With GCTTPWPPHEIMCKQDSDCLAGCVCGPNGFCG (designed binder) [VEGF_CKP12] the “Cellular Assay IC50, rVEGF (50 ng/ml)” value was 1220 µM.
GCQDPTFNWALYCKQDSDCLAGCVCQMYQSCG (designed binder) [VEGF_CKP7] was tested, and the “Cellular Assay IC50, rVEGF (50 ng/ml)” value was 7 µM.
GCQLMQPFWGCKQDSDCLAGCVCHWYQSCG (designed binder) [VEGF_CKP9] was tested, and the “Cellular Assay IC50, rVEGF (50 ng/ml)” value was 1 µM.
In the case of GCRDLDVKWDCKQDSDCLAGCFCQYYSSCG (designed binder) [VEGF_CKP10], the “Cellular Assay IC50, rVEGF (50 ng/ml)” value is reported as 18 µM.
